Laboratory results as given in IntAct's records for PubMed 26455797.

B1: CCAAT/enhancer-binding protein alpha (Homo sapiens), P49715-1 (parent)
chain: MESADFYEAEPRPPMSSHLQSPPHAPSSAAFGFPRGAGPAQPPAPPAAPEPLGGICEHETSIDISAYIDPAAFNDEFLADLFQHSRQQEKAKAAVGPTGGGGGGDFDYPGAPAGPGGAVMPGGAHGPPPGYGCAAAGYLDGRLEPLYERVGAPALRPLVIKQEPREEDEAKQLALAGLFPYQPPPPPPPSHPHPHPPPAHLAAPHLQFQIAHCGQTTMHLQPGHPTPPPTPVPSPHPAPALGAAGLPGPGSALKGLGAAHPDLRASGGSGAGKAKKSVDKNSNEYRVRRERNNIAVRKSRDKAKQRNVETQQKVLELTSDNDRLRKRVEQLSRELDTLRGIFRQLPESSLVKAMGNCA
partner: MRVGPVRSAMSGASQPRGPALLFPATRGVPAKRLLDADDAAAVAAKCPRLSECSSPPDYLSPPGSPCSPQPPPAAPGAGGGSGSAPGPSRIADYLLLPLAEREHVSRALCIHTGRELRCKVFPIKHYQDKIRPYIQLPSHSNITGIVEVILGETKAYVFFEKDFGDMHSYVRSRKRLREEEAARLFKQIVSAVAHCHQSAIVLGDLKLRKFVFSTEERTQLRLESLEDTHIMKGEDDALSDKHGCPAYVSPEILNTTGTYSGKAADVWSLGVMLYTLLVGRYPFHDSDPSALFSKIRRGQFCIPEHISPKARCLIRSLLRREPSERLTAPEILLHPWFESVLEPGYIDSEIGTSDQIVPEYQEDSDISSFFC

Variants of: B1
Conditions: with TRIB1, Q96RU8-1

effect of a mutation on the interaction	Variant
decreasing interaction strength	I62D
decreasing interaction strength	E59A
decreasing interaction strength	I64D
decreasing interaction strength	S61A
decreasing interaction strength	I55A
decreasing interaction strength	Y67A
decreasing interaction strength	I68D
